The term Kd denotes the free concentration of one partner at which half of the binding sites on the other are occupied at equilibrium, for simple one-to-one binding. A low value points to a tighter complex.

This note sets out measurements from article PMC6969036 (Nature Communications, 2020).

Experiment [1] concerns the target Syt I (synaptotagmin I) expressed in 293T cells (UniProt P46096). Briefly: cell-based or functional assay.
In experiment [2] the target is T1, GST-Syt I-C2B (C2B domain of synaptotagmin I fused to GST) (Mus musculus (assumed), UniProt P46096).
T1 construct: synaptotagmin I, C2B domain; also called GST-C2B; source: purified
Kind of experiment: ELISA; purified STAND-A36 on the indicated GST-fused proteins (GST-C2A, GST-C2B, GST); absorbance, n = 3. To be noted: both partners purified. (In general: ELISA stands for enzyme-linked immunosorbent assay.)

Experiment [3] concerns the target T2, GST-Syt I-C2A (C2A domain of synaptotagmin I fused to glutathione S-transferase) (Mus musculus (assumed), UniProt P46096).
T2 construct: synaptotagmin I, C2A domain; its full-length Syt vectors are mouse; also called GST-C2A; source: purified
Kind of experiment: ELISA; GST-Syt I-C2A (0.25 pmol) coated on wells in PBS, 16 h 24 °C; blocked with 5% skim milk in PBS with 0.1% Tween 20; purified scFv (0.22-36 nM STAND-A36, 1.17-1800 nM scFv-T7-A36, 3.77-601 nM scFv-GFPA36) 2 h at 24 °C; detected with anti-Flag or anti-His; binding to GST wells subtracted; Kd from Hill-Langmuir fit. The settings on record: both partners purified.

Chain of Syt I (synaptotagmin I) expressed in 293T cells (P46096 whole entry, the tested form may be a part): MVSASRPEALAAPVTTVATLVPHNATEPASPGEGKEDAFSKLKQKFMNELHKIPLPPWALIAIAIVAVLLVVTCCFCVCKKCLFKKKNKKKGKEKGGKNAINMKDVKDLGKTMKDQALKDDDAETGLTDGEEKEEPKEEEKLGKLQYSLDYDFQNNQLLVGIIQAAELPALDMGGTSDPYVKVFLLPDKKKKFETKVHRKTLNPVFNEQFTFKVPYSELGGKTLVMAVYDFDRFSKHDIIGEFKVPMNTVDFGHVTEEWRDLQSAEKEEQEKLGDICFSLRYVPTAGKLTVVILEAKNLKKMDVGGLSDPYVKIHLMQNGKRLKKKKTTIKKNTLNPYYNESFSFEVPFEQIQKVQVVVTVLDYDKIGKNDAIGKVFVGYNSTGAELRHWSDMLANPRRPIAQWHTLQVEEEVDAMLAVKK
T1 sequence (P46096 whole entry, looked up, the tested form may be a part): as the sequence (P46096 whole entry, the tested form may be a part) above

B1: STAND-A36 (s3Flag-scFv-A36-HA) expressed in 293T cells (scFv, V domains shown)
VH: QVQLQQSGAELVRPGALVKLSCKASGFNIEDYYLHWVKQRPAQGLEWIGGIDPENGIAIYDSKFQGKASITADTSSNTAYLQLSSLTSEDTAVYYCATSEDSFDVWGQGTTVTVS
VL: DIELTQSPATMAASPGEKITITCSASSSISSNYLHWYQQKPGFSPKLLIYRTSNLASGVPARFSGSGSGTSYSLTIGTMEAEDVATYYCQQGSSIPLTFGAGTKLEIK
Take B1: in experiment [1], the “basal dopamine release in the striatum of mice expressing STAND-A36 (microdialysis), inhibition relative to mice expressing STAND-M4” value worked out at 55.3% and the “high potassium (60 mM)-induced dopamine release in cultured dopamine neurons infected with AAV1-STAND-A36, relative to STAND-M4” value was found to be 79.3%.

B2: STAND-A36 (s3Flag-scFv-A36-HA), purified from E. coli (scFv, V domains shown)
VH: B1 VH
VL: B1 VL
notes: scFv-A36: VH-(Gly4-Ser)3 linker-VL, from the spleen of Balb/c mice immunised with GST-Syt II-C2A (phage display); s3Flag-scFv-HA constructs were synthesised and codon-optimised (Genscript); also called s3Flag-A36-HA; purified STAND-A36
For B2, the binding result in experiment [2] is reported as “no binding”. In addition, the equilibrium dissociation constant (Kd) in experiment [3] is 12.2 nM.

B3: scFv-T7-A36 (scFv-A36 fused with T7- and His-tags), purified from E. coli (scFv, V domains shown)
VH: B1 VH
VL: B1 VL
notes: scFv-A36: VH-(Gly4-Ser)3 linker-VL; source: E. coli, purified under non-denaturing conditions (Probond nickel-chelating resin); not shown: T7, N-terminal, kept; His6, C-terminal, kept
As to B3, the Kd in experiment [3] was 341 nM.
